This is an account of results in IntAct's records for PubMed 35512704.

B1: Speckle-type POZ protein (Homo sapiens), O43791 (parent)
chain: MSRVPSPPPPAEMSSGPVAESWCYTQIKVVKFSYMWTINNFSFCREEMGEVIKSSTFSSGANDKLKWCLRVNPKGLDEESKDYLSLYLLLVSCPKSEVRAKFKFSILNAKGEETKAMESQRAYRFVQGKDWGFKKFIRRDFLLDEANGLLPDDKLTLFCEVSVVQDSVNISGQNTMNMVKVPECRLADELGGLWENSRFTDCCLCVAGQEFQAHKAILAARSPVFSAMFEHEMEESKKNRVEINDVEPEVFKEMMCFIYTGKAPNLDKMADDLLAAADKYALERLKVMCEDALCSNLSVENAAEILILADLHSADQLKTQAVDFINYHASDVLETSGWKSMVVSHPHLVAEAYRSLASAQCPFLGPPRKRLKQS
partner: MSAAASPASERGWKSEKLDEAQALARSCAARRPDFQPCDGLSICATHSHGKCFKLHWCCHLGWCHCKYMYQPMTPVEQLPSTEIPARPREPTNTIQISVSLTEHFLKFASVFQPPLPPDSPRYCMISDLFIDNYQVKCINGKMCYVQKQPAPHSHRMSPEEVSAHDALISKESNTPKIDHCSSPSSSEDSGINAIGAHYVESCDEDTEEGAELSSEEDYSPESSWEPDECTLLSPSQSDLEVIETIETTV
B2: Speckle-type POZ protein (Homo sapiens), O43791 (parent)
chain: B1 chain
partner: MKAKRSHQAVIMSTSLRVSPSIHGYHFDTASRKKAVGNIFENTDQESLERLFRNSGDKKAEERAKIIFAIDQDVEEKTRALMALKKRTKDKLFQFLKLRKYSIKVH
B3: Speckle-type POZ protein (Homo sapiens), O43791 (parent)
chain: B1 chain
partner: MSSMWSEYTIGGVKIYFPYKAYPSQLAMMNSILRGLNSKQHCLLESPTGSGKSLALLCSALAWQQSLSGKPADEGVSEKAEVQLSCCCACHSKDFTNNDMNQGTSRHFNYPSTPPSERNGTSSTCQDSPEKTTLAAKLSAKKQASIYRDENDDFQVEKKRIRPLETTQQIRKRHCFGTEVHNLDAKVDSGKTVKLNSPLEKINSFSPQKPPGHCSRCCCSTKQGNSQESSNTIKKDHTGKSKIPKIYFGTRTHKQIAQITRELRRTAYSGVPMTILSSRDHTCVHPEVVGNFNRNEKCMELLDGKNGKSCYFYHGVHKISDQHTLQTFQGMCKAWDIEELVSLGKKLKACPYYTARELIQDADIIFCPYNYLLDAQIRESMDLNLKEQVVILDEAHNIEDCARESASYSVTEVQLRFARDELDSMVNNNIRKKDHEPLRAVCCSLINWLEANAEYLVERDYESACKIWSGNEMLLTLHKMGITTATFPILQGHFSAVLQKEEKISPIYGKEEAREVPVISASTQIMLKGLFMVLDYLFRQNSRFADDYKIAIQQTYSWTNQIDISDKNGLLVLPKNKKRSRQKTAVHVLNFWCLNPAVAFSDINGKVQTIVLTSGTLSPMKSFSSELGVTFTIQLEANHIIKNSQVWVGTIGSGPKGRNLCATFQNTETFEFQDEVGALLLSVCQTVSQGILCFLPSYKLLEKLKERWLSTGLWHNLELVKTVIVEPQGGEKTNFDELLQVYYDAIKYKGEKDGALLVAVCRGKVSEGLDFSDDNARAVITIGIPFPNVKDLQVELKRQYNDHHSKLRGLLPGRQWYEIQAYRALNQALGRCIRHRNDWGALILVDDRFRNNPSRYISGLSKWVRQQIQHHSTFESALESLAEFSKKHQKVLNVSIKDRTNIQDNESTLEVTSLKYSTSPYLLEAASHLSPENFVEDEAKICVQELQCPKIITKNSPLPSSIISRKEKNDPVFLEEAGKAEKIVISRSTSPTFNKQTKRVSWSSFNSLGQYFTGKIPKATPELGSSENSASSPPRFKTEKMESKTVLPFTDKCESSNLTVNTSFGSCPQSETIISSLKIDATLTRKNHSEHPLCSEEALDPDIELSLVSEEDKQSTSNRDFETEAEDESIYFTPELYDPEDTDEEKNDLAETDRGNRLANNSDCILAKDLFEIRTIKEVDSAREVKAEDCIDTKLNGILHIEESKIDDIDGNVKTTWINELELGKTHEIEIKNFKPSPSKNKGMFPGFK

The variants in one assay derive from B1. Particulars: with cc070_human C3orf70, A6NLC5.
For MSRVPSPPPPAEMSSGPVAESWCYTQIKVVKFSYMWTINNFSFCREEMGEVIKSSTFSSGANDKLKWCLRVNPKGLDEESKDYLSLYLLLVSCPKSEVRAKFKFSILNAKGEETKAMESQRAYRFVQGKDWGVKKFIRRDFLLDEANGLLPDDKLTLFCEVSVVQDSVNISGQNTMNMVKVPECRLADELGGLWENSRFTDCCLCVAGQEFQAHKAILAARSPVFSAMFEHEMEESKKNRVEINDVEPEVFKEMMCFIYTGKAPNLDKMADDLLAAADKYALERLKVMCEDALCSNLSVENAAEILILADLHSADQLKTQAVDFINYHASDVLETSGWKSMVVSHPHLVAEAYRSLASAQCPFLGPPRKRLKQS [F133V], the “effect of a mutation on the interaction” value is recorded as “with no effect”.

The next assay covers variants of B1. As to conditions: with cc070_human C3orf70, A6NLC5. The source holds these as a separate data set.
In the case of MSRVPSPPPPAEMSSGPVAESWCYTQIKVVKFSYMWTINNFSFCREEMGEVIKSSTFSSGANDKLKWCLRVNPKGLDEESKDYLSLYLLLVSCPKSEVRAKFKFSILNAKGEETKAMESQRAYRFVQGKDWGLKKFIRRDFLLDEANGLLPDDKLTLFCEVSVVQDSVNISGQNTMNMVKVPECRLADELGGLWENSRFTDCCLCVAGQEFQAHKAILAARSPVFSAMFEHEMEESKKNRVEINDVEPEVFKEMMCFIYTGKAPNLDKMADDLLAAADKYALERLKVMCEDALCSNLSVENAAEILILADLHSADQLKTQAVDFINYHASDVLETSGWKSMVVSHPHLVAEAYRSLASAQCPFLGPPRKRLKQS [F133L], the “effect of a mutation on the interaction” value is on record as “with no effect”.

Variants of B2 are the subject of a further assay. As to conditions: with tcim_human TCIM.
Take MSRVPSPPPPAEMSSGPVAESWCYTQIKVVKFSYMWTINNFSFCREEMGEVIKSSTFSSGANDKLKWCLRVNPKGLDEESKDYLSLCLLLVSCPKSEVRAKFKFSILNAKGEETKAMESQRAYRFVQGKDWGFKKFIRRDFLLDEANGLLPDDKLTLFCEVSVVQDSVNISGQNTMNMVKVPECRLADELGGLWENSRFTDCCLCVAGQEFQAHKAILAARSPVFSAMFEHEMEESKKNRVEINDVEPEVFKEMMCFIYTGKAPNLDKMADDLLAAADKYALERLKVMCEDALCSNLSVENAAEILILADLHSADQLKTQAVDFINYHASDVLETSGWKSMVVSHPHLVAEAYRSLASAQCPFLGPPRKRLKQS [Y87C]: the “effect of a mutation on the interaction” value was “with no effect”.

In another assay the parent is B2. Particulars: with tcim_human TCIM. This is another data set of the same source.
MSRVPSPPPPAEMSSGPVAESWCYTQIKVVKFSYMWTINNFSFCREEMGEVIKSSTFSSGANDKLKWCLRVNPKGLDEESKDYLSLYLLLVSCPKSEVRAKFKFSILNAKGEETKAMESQRAYRFVQGKDWGVKKFIRRDFLLDEANGLLPDDKLTLFCEVSVVQDSVNISGQNTMNMVKVPECRLADELGGLWENSRFTDCCLCVAGQEFQAHKAILAARSPVFSAMFEHEMEESKKNRVEINDVEPEVFKEMMCFIYTGKAPNLDKMADDLLAAADKYALERLKVMCEDALCSNLSVENAAEILILADLHSADQLKTQAVDFINYHASDVLETSGWKSMVVSHPHLVAEAYRSLASAQCPFLGPPRKRLKQS [F133V]: the “effect of a mutation on the interaction” value is listed as “with no effect”.

Variants of B2 are the subject of another assay. Particulars: with tcim_human TCIM. The source holds these as a separate data set.
Regarding MSRVPSPPPPAEMSSGPVAESWCYTQIKVVKFSYMWTINNFSFCREEMGEVIKSSTFSSGANDKLKWCLRVNPKGLDEESKDYLSLYLLLVSCPKSEVRAKFKFSILNAKGEETKAMESQRAYRFVQGKDWGLKKFIRRDFLLDEANGLLPDDKLTLFCEVSVVQDSVNISGQNTMNMVKVPECRLADELGGLWENSRFTDCCLCVAGQEFQAHKAILAARSPVFSAMFEHEMEESKKNRVEINDVEPEVFKEMMCFIYTGKAPNLDKMADDLLAAADKYALERLKVMCEDALCSNLSVENAAEILILADLHSADQLKTQAVDFINYHASDVLETSGWKSMVVSHPHLVAEAYRSLASAQCPFLGPPRKRLKQS [F133L], the “effect of a mutation on the interaction” value is reported as “with no effect”.

Variants of B2 are the subject of another assay. Particulars: with tcim_human TCIM. This is another data set of the same source.
Take MSRVPSPPPPAEMSSGPVAESWCYTQIKVVKFSYMWTINNFSFCREEMGEVIKSSTFSSGANDKLKWCLRVNPKGLDEESKDYLSLYLLLVSCPKSEVRAKCKFSILNAKGEETKAMESQRAYRFVQGKDWGFKKFIRRDFLLDEANGLLPDDKLTLFCEVSVVQDSVNISGQNTMNMVKVPECRLADELGGLWENSRFTDCCLCVAGQEFQAHKAILAARSPVFSAMFEHEMEESKKNRVEINDVEPEVFKEMMCFIYTGKAPNLDKMADDLLAAADKYALERLKVMCEDALCSNLSVENAAEILILADLHSADQLKTQAVDFINYHASDVLETSGWKSMVVSHPHLVAEAYRSLASAQCPFLGPPRKRLKQS [F102C]: the “effect of a mutation on the interaction” value was “with no effect”.

Variants of B3 are the subject of another assay. Particulars: with fancj_human BRIP1, Q9BX63.
As for MSRVPSPPPPAEMSSGPVAESWCYTQIKVVKFSYMWTINNFSFCREEMGEVIKSSTFSSGANDKLKWCLRVNPKGLDEESKDYLSLYLLLVSCPKSEVRAKFKFSILNAKGEETKAMESQRAYRFVQGKDWGVKKFIRRDFLLDEANGLLPDDKLTLFCEVSVVQDSVNISGQNTMNMVKVPECRLADELGGLWENSRFTDCCLCVAGQEFQAHKAILAARSPVFSAMFEHEMEESKKNRVEINDVEPEVFKEMMCFIYTGKAPNLDKMADDLLAAADKYALERLKVMCEDALCSNLSVENAAEILILADLHSADQLKTQAVDFINYHASDVLETSGWKSMVVSHPHLVAEAYRSLASAQCPFLGPPRKRLKQS [F133V], the “effect of a mutation on the interaction” value was “with no effect”.

The variants in the next assay derive from B3. As to conditions: with fancj_human BRIP1, Q9BX63. The source holds these as a separate data set.
In the case of MSRVPSPPPPAEMSSGPVAESWCYTQIKVVKFSYMWTINNFSFCREEMGEVIKSSTFSSGANDKLKWCLRVNPKGLDEESKDYLSLCLLLVSCPKSEVRAKFKFSILNAKGEETKAMESQRAYRFVQGKDWGFKKFIRRDFLLDEANGLLPDDKLTLFCEVSVVQDSVNISGQNTMNMVKVPECRLADELGGLWENSRFTDCCLCVAGQEFQAHKAILAARSPVFSAMFEHEMEESKKNRVEINDVEPEVFKEMMCFIYTGKAPNLDKMADDLLAAADKYALERLKVMCEDALCSNLSVENAAEILILADLHSADQLKTQAVDFINYHASDVLETSGWKSMVVSHPHLVAEAYRSLASAQCPFLGPPRKRLKQS [Y87C], the “effect of a mutation on the interaction” value was “with no effect”.
